Literature values in PMC5177622, “Multivalent Histone and DNA Engagement by a PHD/BRD/PWWP Triple Reader Cassette Recruits ZMYND8 to K14ac-Rich Chromatin” (Cell Reports, 2016).
Like-named read-outs stand apart in the source and are kept apart here.

Molecular target: T1, human BAZ2B (UniProt: Q9UIF8 residues 2054-2168) WT (Homo sapiens, UniProt Q9UIF8)
T1 construct: residues 2054- 2168; made in house
T1 sequence (Q9UIF8 2054-2168): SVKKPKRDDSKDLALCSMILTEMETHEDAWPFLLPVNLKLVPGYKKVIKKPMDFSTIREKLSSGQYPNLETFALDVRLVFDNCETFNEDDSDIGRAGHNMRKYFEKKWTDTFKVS
Details: ITC
Procedure: Titrations were carried out in 20 mM HEPES pH 7.5 (at 25 °C), 200 mM NaCl and 15 °C while stirring at 1000 rpm. Peptides were titrated into protein solutions. Data related to Fi gur e 5. [P] [Pep] KD ΔHobs TΔS ΔG B AZ 2 B Peptide (μM) (μM) (μM) ...

[1] = ref Filippakopoulos et al., 2012

Kd [1]	N [1]	TΔS [1]	ΔG [1]	ΔHobs [1]	Kd (ref Philpott et al., 2011)	N (ref Philpott et al., 2011)	TΔS (ref Philpott et al., 2011)	ΔG (ref Philpott et al., 2011)	ΔHobs (ref Philpott et al., 2011)	Substance
7.6 ± 0.3 µM	0.99 ± 0.007	-2.27 kcal/mol	-6.64 kcal/mol	-8.91 ± 0.08 kcal/mol	–	–	–	–	–	H3(9-19)K14ac: histone H3 residues 9-19 peptide bearing K14ac; data from Filippakopoulos et al., 2012
–	–	–	–	–	6.3 ± 0.2 µM	1.00 ± 0.007	-0.12 kcal/mol	-6.74 kcal/mol	-6.86 ± 0.06 kcal/mol	H3(5-25)K14ac: histone H3 residues 5-25 peptide bearing K14ac; data from Philpott et al., 2011
